Data set [1] deals with T1, Large fragment (residues 12-390) of trypsin treated DIG-616 (DIG-177 C162>A) (Bacillus thuringiensis, UniProt Q45757 12-390).
T1 sequence: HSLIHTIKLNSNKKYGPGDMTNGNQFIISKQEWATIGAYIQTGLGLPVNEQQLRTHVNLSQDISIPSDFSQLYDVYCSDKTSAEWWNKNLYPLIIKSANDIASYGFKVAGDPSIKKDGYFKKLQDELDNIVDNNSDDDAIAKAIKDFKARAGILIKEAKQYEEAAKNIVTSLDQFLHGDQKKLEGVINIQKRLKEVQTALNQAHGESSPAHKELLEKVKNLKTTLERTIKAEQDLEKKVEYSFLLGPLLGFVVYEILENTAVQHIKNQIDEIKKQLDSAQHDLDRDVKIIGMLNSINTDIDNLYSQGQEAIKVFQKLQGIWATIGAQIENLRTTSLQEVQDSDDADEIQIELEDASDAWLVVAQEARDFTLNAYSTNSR
Description: cell-based or functional assay.

Data set [2] deals with T2, Large fragment (residues 12-390) of trypsin treated DIG-984 (DIG-177 C88>A; C451>A) (Bacillus thuringiensis) (UniProt Q45757).
T2 sequence: T1 sequence with C77A, A151C
Description: cell-based or functional assay.

Data set [3] concerns the molecule itself. In words: SDS-PAGE of undigested full-length DIG-177 (self-association).
Description: SDS-PAGE was run following the protocol NuPAGE Bis-Tris gels from Invitrogen Life technologies (Protocol Pub. No. MAN0007894 Rev. A.0, Ref. 2). Briefly, samples were mixed with denaturing sample buffer (Invitrogen) plus 5 mM DTT (for reducing PAGE) or minus DTT (for non reducing PAGE) and heated at 95° C. for 5 minutes. The samples were loaded onto Invitrogen Bis/Tris gel. The gel was run with MOPS or MES running buffer under 200 V for ˜43 minutes. The gel was stained with Coomassie blue staining solution (Bio-Rad) for 30 minutes and de-stained with de-staining solution (7% Acetic acid and 5% Methanol in water) until the background cleared.

Residue numbers refer to the chain shown, from its start. “And” between values parts separate entries of the source, which are not always exact repeats. Equal entries are not always repeated. Where no end group is shown, it is not given here.

B1: CTP 2 (Carboxy terminal peptide 2), amino acids 451-475 of SEQ ID NO:2 (peptide)
peptide: CPENNFMIYWYNNSDWYNNSDWYNN
modifications: also: Cys451 (position 1) disulfide-bonded to Cys88 of LF under non-reducing conditions
Regarding B1, the “% Mortality” value in data set [1] came to 95%.
As to APENNFMIYWYNNSDWYNNSDWYNN [Carboxy terminal peptide 451-475 of trypsin treated DIG-984 (C451>A)], the % Mortality in data set [2] was 0% and 21.1% and 15%.
Same read-out and setting: under NSNLEYKAPENNFMIYWYNNSDWYNNSDWYNN [Carboxy terminal peptide 444-475 of trypsin treated DIG-984 (C451>A)] stands 0% and 21.1% and 15%.

B2: CTP 1 (Carboxy terminal peptide 1), amino acids 444-475 of SEQ ID NO:2 (peptide)
peptide: NSNLEYKCPENNFMIYWYNNSDWYNNSDWYNN
modifications: also: Cys451 (position 8) disulfide-bonded to Cys88 of LF under non-reducing conditions
Consider B2, for which the “% Mortality” value in data set [1] came out at 95%.

B3: DIG-177 (full length wild type Cry6Aa) (other)
chain: MIIDSKTTLPRHSLIHTIKLNSNKKYGPGDMTNGNQFIISKQEWATIGAYIQTGLGLPVNEQQLRTHVNLSQDISIPSDFSQLYDVYCSDKTSAEWWNKNLYPLIIKSANDIASYGFKVAGDPSIKKDGYFKKLQDELDNIVDNNSDDDAIAKAIKDFKARCGILIKEAKQYEEAAKNIVTSLDQFLHGDQKKLEGVINIQKRLKEVQTALNQAHGESSPAHKELLEKVKNLKTTLERTIKAEQDLEKKVEYSFLLGPLLGFVVYEILENTAVQHIKNQIDEIKKQLDSAQHDLDRDVKIIGMLNSINTDIDNLYSQGQEAIKVFQKLQGIWATIGAQIENLRTTSLQEVQDSDDADEIQIELEDASDAWLVVAQEARDFTLNAYSTNSRQNLPINVISDSCNCSTTNMTSNQYSNPTTNMTSNQYMISHEYTSLPNNFMLSRNSNLEYKCPENNFMIYWYNNSDWYNNSDWYNN
notes: Insecticidal crystal protein; Recombinant from Pseudomonas fluorescens (standard), or expressed in maize, there in part with transit peptides
Regarding B3, the binding result in data set [3] was “binds”.

The record behind these values is patent publication US20170051304A1 (DOW AGROSCIENCES, published 2017).
